This is an account of results in patent US7442159.

For assay [1], the target named is Stoffel fragment of Thermus aquaticus DNA polymerase I fused to p3, displayed on phage (pHEN1-Stoffel) (Thermus aquaticus; filamentous bacteriophage) (UniProt P19821). Briefly: phage ELISA, plate coated with anti-Taq antibody, anti-M13-HRP detection; 10^7 phage particles of clone 10 (selected leader).
The target is the same in assay [2]. As to the kind of experiment: phage ELISA, plate coated with anti-Taq antibody, anti-M13-HRP detection; 10^9 phage particles of the pelB leader phagemid pHEN1-Stoffel. In general terms: In an ELISA, binding on a coated surface is turned into a signal by an enzyme label.

Sequence of UniProt P19821 (P19821 290-832 limits assumed): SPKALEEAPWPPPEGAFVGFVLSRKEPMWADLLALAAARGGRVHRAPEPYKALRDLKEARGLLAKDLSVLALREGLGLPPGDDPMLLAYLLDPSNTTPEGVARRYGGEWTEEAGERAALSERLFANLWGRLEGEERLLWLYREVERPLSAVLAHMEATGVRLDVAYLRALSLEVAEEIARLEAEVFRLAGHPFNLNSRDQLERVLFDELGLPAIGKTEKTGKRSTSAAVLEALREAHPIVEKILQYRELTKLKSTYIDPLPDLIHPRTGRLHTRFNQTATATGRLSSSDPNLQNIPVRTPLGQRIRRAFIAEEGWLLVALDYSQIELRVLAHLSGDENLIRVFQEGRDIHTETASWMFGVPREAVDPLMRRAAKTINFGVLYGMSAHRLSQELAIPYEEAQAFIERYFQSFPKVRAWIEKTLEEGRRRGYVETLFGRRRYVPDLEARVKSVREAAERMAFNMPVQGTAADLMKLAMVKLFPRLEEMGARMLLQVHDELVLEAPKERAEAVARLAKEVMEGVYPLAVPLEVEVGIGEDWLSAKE

Turning to anti-Taq antibody (Taqstart, Clontech), the results for the signal to noise ratio in assay [1] and in assay [2] were 1.47 and 1.46, respectively.
